Assay results reported in paper PMC9305820.

What was measured:
[1] = target: Fluorescently labeled TGF-β1; experiment: MST
[2] = target: Transforming growth factor-β1 (TGF-β1) dimer (UniProt P01137); experiment: dynamic light scattering
[3] = target: Transforming growth factor-β1 (TGF-β1) dimer (UniProt P01137); experiment: negative-stain electron microscopy

UniProt P01137, sequence (P01137 279-390): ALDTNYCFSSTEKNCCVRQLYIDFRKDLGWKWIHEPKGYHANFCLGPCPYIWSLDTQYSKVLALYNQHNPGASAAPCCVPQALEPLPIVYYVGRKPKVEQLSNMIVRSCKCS

Substance “Bintrafusp alfa (from UniProt P37173 23-166)” has a Kd [1] of 0.055 nM, a stoichiometry N (BA per TGF-β1 dimer) [2] of 1 and a stoichiometry N (TGF-β1 dimer per BA) [3] of 1.
